We go through ten molecules from patent US20240132589A1 (ONCORESPONSE, published 2024).

The target in assay [1] is T1, Recombinant human LILRB2 protein (ELISA antigen) (human, UniProt Q8N423 22-460).
T1 construct: also called LILRB2-His; recombinant LILRB2
The assay can be described thus: ELISA, plate-coated recombinant human LILRB2. Here is the method:
(§1) To confirm binding to human and cynomolgus LILRB2, antibodies in supernatants were evaluated for binding by enzyme-linked immunosorbent assay (ELISA). Recombinant LILRB2 proteins (human: SEQ ID NO: 48; cynomolgus) were diluted in PBS to 2 μg/mL and added to 384-well high-binding ELISA plates (Greiner Bio-One Microlon™) at 25 μL/well and incubated at 4° C. overnight. The plates were washed three times with Wash Buffer (0.05% Tween® 20 in PBS), using a microplate washer and then blocked with 90 μL/well of ELISA Blocking Buffer A (1% BSA in PBS) for 1 hour at room temperature (RT). After blocking, 25 μL/well of LILRB2 antibodies or isotype control were added to the plates and incubated for 1 hour at RT. After primary antibody binding, plates were washed three times with Wash Buffer using a microplate washer. Secondary detection antibody (HRP-goat anti-rabbit Fab fragment) was diluted to 1:3000 in assay diluent (1% BSA in PBS) and 25 μL/well was added to plates and incubated at RT protected from light for 1 hour. Following incubation, plates were washed four times with Wash Buffer, using a microplate washer. After removal of the final wash, 25 μL/well of 1-Step™ Ultra TMB-ELISA Substrate Solution (Thermo Fisher, No. 34028) was added and plates were incubated for 5-10 min at RT, protected from light. After development, the reaction was stopped by addition of 25 μL/well of 0.3 M HCl, and plates were read using an EnVision (Perkin Elmer) microplate reader at 450 nm. EC₅₀ values were calculated based on log concentration of the primary antibodies at optical density at 450 nm.
(§2) Select humanized variant antibodies were purified and tested for their ability to bind human LILRB2 by ELISA, using the method described in Example 2, and binding to HEK293T cells expressing human LILRB2, using the method described in Example 4. Representative data are shown for IgG4 variants in Table 6.
Background: ELISA stands for enzyme-linked immunosorbent assay.

Assay [2] addresses T2, Human LILRB2 on stably transduced HEK293T cells (human, UniProt Q8N423 22-597).
T2 construct: Lentiviral transduction (G&P Biosciences LTV2992); also called HEK293T-LILRB2; LILRB2-expressing HEK293T cells
Nature of the assay: flow cytometry, HEK293T cells stably expressing human LILRB2. The procedure:
To confirm binding of LILRB2 antibodies, flow cytometry binding assays were performed using HEK293T cells stably expressing human LILRB2 (Example 3). […] The B2A-IgG1 and B2A-IgG4 chimeras bound the LILRB2-expressing HEK293T cells, with equivalent EC₅₀ values of 0.21 nM and 0.30 nM respectively.
as §2

Assay [3] deals with T3, LILRB2-Fc protein (human, UniProt Q8N423 22-460, limits assumed).
T3 construct: also called human LILRB2-Fc; not shown: Fc part
T3 sequence (Q8N423 22-460 limits assumed): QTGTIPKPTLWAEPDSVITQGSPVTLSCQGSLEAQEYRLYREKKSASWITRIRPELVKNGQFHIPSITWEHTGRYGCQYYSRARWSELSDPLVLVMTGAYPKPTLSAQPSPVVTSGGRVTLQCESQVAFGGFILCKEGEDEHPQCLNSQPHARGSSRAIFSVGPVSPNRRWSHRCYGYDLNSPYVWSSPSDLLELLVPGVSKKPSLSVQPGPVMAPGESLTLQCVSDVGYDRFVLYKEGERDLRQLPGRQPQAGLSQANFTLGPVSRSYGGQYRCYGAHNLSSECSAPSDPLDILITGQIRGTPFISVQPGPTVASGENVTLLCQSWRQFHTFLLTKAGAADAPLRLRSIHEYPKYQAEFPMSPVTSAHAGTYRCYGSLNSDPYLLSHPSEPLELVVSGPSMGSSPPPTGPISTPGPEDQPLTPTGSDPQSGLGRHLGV
Nature of the assay: blocking ELISA, LILRB2-Fc binding to coated monomer HLA-G; Exp I. Here is the method:
(§3) Tumor-associated HLA-G is an HLA Class I ligand for LILRB2. Binding of HLA-G to LILRB2 induces an immune suppressive signal in LILRB2 expressing myeloid cells. To determine if the anti-LILRB2 antibodies block the HLA-G-LILRB2 interaction and prevent the induction of an inhibitory signal, blocking ELISA assays in a dose titration were performed. 384-well plates were coated with monomer HLA-G (Fred Hutchinson Cancer Research Center, No. bHLA-G) at a concentration of 5 μg/mL, diluted in PBS, then plates were incubated at RT for 1 hour. Plates were rinsed with Wash Buffer three times, then blocked with Blocking Buffer A for 30 minutes at RT. During blocking incubation step, LILRB2-Fc protein and antibody titrations were prepared in Blocking Buffer A. LILRB2-Fc protein was then incubated with antibody titrations for 30 minutes at RT to allow for binding prior to addition onto plate. Plates were rinsed three times with Wash Buffer, then 25 μL of protein/antibody mixture was added per well and incubated for 1 hour at RT. Following antibody incubation, plates were washed three times with Wash Buffer. Anti-human IgG Fc-HRP secondary antibody was diluted and added at 25 μL/well. Plates were incubated in the dark for 1 hour at RT. Following secondary antibody incubation, plates were washed four times with Wash Buffer. 25 μL/well ultra-neat TMB was added per well for development and incubated for 5 minutes at RT. Reaction was stopped using 0.3 M HCl (25 μL/well). Absorbance was read at 450 nm using the Envision. The IC₅₀ for HLA-G blocking by clone B2A-IgG4 was 0.066 μg/mL.
(§4) Select humanized IgG4 variant antibodies were tested for their ability to block binding of human LILRB2-Fc to monomer HLA-G by ELISA, using the method described in Example 7.

Assay [4] has as its target T3, LILRB2-Fc protein. Nature of the assay: blocking ELISA, LILRB2-Fc binding to coated monomer HLA-G; Exp II. Here is the method:
as §3, §4

Assay [5] concerns the target T1, Recombinant human LILRB2 protein (ELISA …). Nature of the assay: ELISA, immobilized LILRB2-His; conditioned media of transient transfections. Here is the method:
as §1
Twenty-five IgG4 variants were expressed in mammalian cell culture as a combinatorial library of the five light and five heavy chains. In addition, B2A-IgG4 was included as a transfection control. The conditioned media from these transient transfections were assayed for human IgG concentration. A plate-based ELISA (see Example 2) was performed in which LILRB2-His was immobilized, and binding of humanized mAb variants was detected via an anti-human IgG4 HRP-labeled secondary antibody. The parental rabbit/human chimera clone transfection served as the benchmark EC₅₀ positive control.

The term EC50 denotes the concentration at which the effect is half-maximal. As a reminder, the IC50 is the concentration that inhibits the measured activity by half.

T2 sequence (Q8N423 other isoform, or with tags, fused parts or gaps limits assumed): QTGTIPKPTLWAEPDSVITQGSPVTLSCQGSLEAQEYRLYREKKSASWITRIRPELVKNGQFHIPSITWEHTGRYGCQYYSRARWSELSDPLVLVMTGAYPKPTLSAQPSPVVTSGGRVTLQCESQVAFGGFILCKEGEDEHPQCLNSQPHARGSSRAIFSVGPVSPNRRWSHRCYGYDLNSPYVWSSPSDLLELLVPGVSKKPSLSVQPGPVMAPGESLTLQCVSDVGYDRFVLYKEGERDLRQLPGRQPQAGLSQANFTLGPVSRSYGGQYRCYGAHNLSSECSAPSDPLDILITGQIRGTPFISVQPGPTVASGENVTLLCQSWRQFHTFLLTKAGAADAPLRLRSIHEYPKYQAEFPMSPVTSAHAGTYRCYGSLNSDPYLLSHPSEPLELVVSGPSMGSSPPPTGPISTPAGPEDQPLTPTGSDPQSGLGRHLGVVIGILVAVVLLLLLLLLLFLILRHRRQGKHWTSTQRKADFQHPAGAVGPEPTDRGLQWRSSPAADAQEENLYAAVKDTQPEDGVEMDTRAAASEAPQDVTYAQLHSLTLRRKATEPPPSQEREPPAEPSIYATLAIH
T1 sequence (Q8N423 other isoform, or with tags, fused parts or gaps limits assumed): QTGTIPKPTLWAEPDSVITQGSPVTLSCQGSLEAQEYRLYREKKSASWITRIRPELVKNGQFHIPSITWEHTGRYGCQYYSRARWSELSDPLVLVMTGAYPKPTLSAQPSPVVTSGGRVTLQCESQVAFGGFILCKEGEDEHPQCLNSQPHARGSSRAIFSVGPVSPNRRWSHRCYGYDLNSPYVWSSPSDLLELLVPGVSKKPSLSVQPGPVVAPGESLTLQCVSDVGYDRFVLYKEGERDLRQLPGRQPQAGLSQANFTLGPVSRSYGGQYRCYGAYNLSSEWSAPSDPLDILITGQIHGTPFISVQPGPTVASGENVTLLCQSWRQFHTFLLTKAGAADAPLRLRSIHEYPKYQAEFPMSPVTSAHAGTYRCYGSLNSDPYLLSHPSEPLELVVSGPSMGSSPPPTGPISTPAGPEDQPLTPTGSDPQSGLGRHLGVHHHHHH

B1: B2H4-54 (antibody, V domains shown)
VH: EVQLLESGGGLVQPGTSLTLSCAASGFSLSTYAMSWVRQAPGKGLEWIGWIYNDGSTYYAAWAKGRFTISKDTSKTTLYLQITSLRAEDTATYFCAREGDYIGYFNIWGQGTLVTVSS
VL: DIQMTQSPSSVSASVGDRVTITCQASQSIGSNLAWYQQKPGKAPKLLIYAAATLASGVPLRFSGSGSGTDFTLTISNLQPEDSATYYCQSYVSGSSDVAFGGGTKVEIK
notes: Humanized variant, human IgG4 / kappa
Consider B1, for which the values for the EC50 in assay [1], in assay [2] and in assay [5] were 2 ng/mL, 0.17 ng/mL and 2.25 ng/mL, respectively. Further, in assay [2], the “BMAX [gMFI]” value amounted to 10400 gMFI. The 50% inhibitory concentration (IC50) in assay [3] was found to be 4040 ng/mL; in assay [4], 4090 ng/mL.

B2: B2H4-52 (antibody, V domains shown)
VH: EVQLLESGGGLVQPGTSLTLSCAASGFSLSTYAMSWVRQAPGKGLEWIGWIYNDGSTYYAAWAKGRFTISKDTSKTTLYLQITSLRAEDTATYFCAREGDYIGYFNIWGQGTLVTVSS
VL: DVVMTQSPSSVSASLGDRVTITCQASQSIGSNLAWYQQKPGQAPKLLIYAAATLASGVPSRFKGSGSGTDFTLTITSLQPADFATYYCQSYVSGSSDVAFGGGTKVEIK
notes: as for B1
For the molecule B2, the EC50 in assay [5] was found to be 5.37 ng/mL.

B3: B2H4-43 (antibody, V domains shown)
VH: EVQLLESGGRLVQPGTSLRLSCAVSGFSLSTYAMSWVRQAPGKGLEWIGWIYNDGSTYYAAWAKGRFTISKDTSKTTLYLQMNSLTVEDTATYFCAREGDYIGYFNIWGQGTLVTVSS
VL: DIEMTQSPSSVSASVGDRVTLTCQASQSIGSNLAWYQQKPGQAPKLLIYAAATLASGVPSRFKGSGSGTDFTLTISSLQPEDFATYYCQSYVSGSSDVAFGGGTEVVVK
notes: as for B1
With B3, the concentration for a half-maximal effect (EC50) in assay [5] was 4.96 ng/mL.

B4: B2H4-41 (antibody, V domains shown)
VH: EVQLLESGGRLVQPGTSLRLSCAVSGFSLSTYAMSWVRQAPGKGLEWIGWIYNDGSTYYAAWAKGRFTISKDTSKTTLYLQMNSLTVEDTATYFCAREGDYIGYFNIWGQGTLVTVSS
VL: DIQMTQSPSSLSASVGDRVTITCQASQSIGSNLAWYQLKPGQRPKLLIYAAATLASGVPSRFKGSGSGTDFTLTISSLQSEDAATYYCQSYVSGSSDVAFGGGTEVVVK
notes: as for B1
Regarding B4, the EC50 in assay [1] stood at 3.05 ng/mL; in assay [2] it was 0.28 ng/mL; in assay [5], 3.76 ng/mL. The “BMAX [gMFI]” value in assay [2] stood at 10100 gMFI. Further, the IC50 in assay [3] was 5780 ng/mL; in assay [4], 6760 ng/mL.

B5: B2H4-24 (antibody, V domains shown)
VH: EVQLVESGGDLATPGGSLRLSCAVSGFSLSTYAMSWVRQAPGKGLEWVGWIYNDGSTYYAAWAKGRFTISKDTSKTTVYLQMTSLRAEDTALYFCAREGDYIGYFNIWGQGTLVTVSS
VL: DIQMTQSPSSVSASVGDRVTITCQASQSIGSNLAWYQQKPGKAPKLLIYAAATLASGVPLRFSGSGSGTDFTLTISNLQPEDSATYYCQSYVSGSSDVAFGGGTKVEIK
notes: as for B1
As to B5, the EC50 in assay [1] is 2.81 ng/mL; in assay [2], 0.35 ng/mL; in assay [5] it was 3.23 ng/mL. Also, the “BMAX [gMFI]” value in assay [2] worked out at 10500 gMFI. Moreover, the figures for the IC50 in assay [3] and in assay [4] were 7010 ng/mL and 7500 ng/mL, respectively.

B6: B2H4-55 (antibody, V domains shown)
VH: EVQLLESGGGLVQPGTSLTLSCAASGFSLSTYAMSWVRQAPGKGLEWIGWIYNDGSTYYAAWAKGRFTISKDTSKTTLYLQITSLRAEDTATYFCAREGDYIGYFNIWGQGTLVTVSS
VL: DVVMTQTPSSVSAALGGTVTIKCQASQSIGSNLAWYQLKPGQRPKLLIYAAATLASGGSSRFKGSGSGTDFTLTISSLEPADAATYYCQSYVSGSSDVAFGGGTEVVVK
notes: as for B1
Consider B6, for which the 50% effective concentration (EC50) in assay [1] is 2.82 ng/mL; in assay [2] it was 0.33 ng/mL. Besides, the “BMAX [gMFI]” value in assay [2] turned out to be 10800 gMFI. Moreover, the IC50 in assay [3] stood at 6890 ng/mL; in assay [4], 7170 ng/mL.

B7: B2H4-44 (antibody, V domains shown)
VH: EVQLLESGGRLVQPGTSLRLSCAVSGFSLSTYAMSWVRQAPGKGLEWIGWIYNDGSTYYAAWAKGRFTISKDTSKTTLYLQMNSLTVEDTATYFCAREGDYIGYFNIWGQGTLVTVSS
VL: DIQMTQSPSSVSASVGDRVTITCQASQSIGSNLAWYQQKPGKAPKLLIYAAATLASGVPLRFSGSGSGTDFTLTISNLQPEDSATYYCQSYVSGSSDVAFGGGTKVEIK
notes: as for B1
With B7, the results for the half-maximal effective concentration (EC50) in assay [1], in assay [2] and in assay [5] were 2.84 ng/mL, 0.31 ng/mL and 4.6 ng/mL, respectively. Also, in assay [2], the “BMAX [gMFI]” value came to 10900 gMFI. For the same molecule, the results for the IC50 in assay [3] and in assay [4] were 7040 ng/mL and 7290 ng/mL, respectively.

B8: B2H4-25 (antibody, V domains shown)
VH: EVQLVESGGDLATPGGSLRLSCAVSGFSLSTYAMSWVRQAPGKGLEWVGWIYNDGSTYYAAWAKGRFTISKDTSKTTVYLQMTSLRAEDTALYFCAREGDYIGYFNIWGQGTLVTVSS
VL: DVVMTQTPSSVSAALGGTVTIKCQASQSIGSNLAWYQLKPGQRPKLLIYAAATLASGGSSRFKGSGSGTDFTLTISSLEPADAATYYCQSYVSGSSDVAFGGGTEVVVK
notes: as for B1
As to B8, the EC50 in assay [1] was determined as 2.88 ng/mL; in assay [2], 0.35 ng/mL; in assay [5] it was 4.56 ng/mL. Besides, the “BMAX [gMFI]” value in assay [2] was 10200 gMFI. The values for the IC50 in assay [3] and in assay [4] were 7640 ng/mL and 8290 ng/mL, respectively.

B9: B2H4-11 (antibody, V domains shown)
VH: QVQLEESGGRVVQPGRSLRLSCAASGFSLSTYAMSWVRQAPGKGLEWIGWIYNDGSTYYAAWAKGRFTISKDTSKTTVFLQMNSLKPDDTATYFCAREGDYIGYFNIWGQGTLVTVSS
VL: DIQMTQSPSSLSASVGDRVTITCQASQSIGSNLAWYQLKPGQRPKLLIYAAATLASGVPSRFKGSGSGTDFTLTISSLQSEDAATYYCQSYVSGSSDVAFGGGTEVVVK
notes: as for B1
In the case of B9, the EC50 in assay [1] turned out to be 3.98 ng/mL; in assay [2] it was 0.32 ng/mL; in assay [5], 4.2 ng/mL. For the same molecule, the “BMAX [gMFI]” value in assay [2] amounted to 9840 gMFI. Besides, the IC50 came out at 7310 ng/mL in assay [3] and 7990 ng/mL in assay [4].

B10: B2H4-45 (antibody, V domains shown)
VH: EVQLLESGGRLVQPGTSLRLSCAVSGFSLSTYAMSWVRQAPGKGLEWIGWIYNDGSTYYAAWAKGRFTISKDTSKTTLYLQMNSLTVEDTATYFCAREGDYIGYFNIWGQGTLVTVSS
VL: DVVMTQTPSSVSAALGGTVTIKCQASQSIGSNLAWYQLKPGQRPKLLIYAAATLASGGSSRFKGSGSGTDFTLTISSLEPADAATYYCQSYVSGSSDVAFGGGTEVVVK
notes: as for B1
Turning to B10, the EC50 in assay [1] was 2.3 ng/mL; in assay [2] it was 0.31 ng/mL; in assay [5], 3.61 ng/mL. For the same molecule, in assay [2], the “BMAX [gMFI]” value was found to be 10500 gMFI. Moreover, the IC50 is 6520 ng/mL in assay [3] and 7120 ng/mL in assay [4].
